Reference: patent US20200087400A1 (EUREKA THERAPEUTICS, published 2020)

B1: PSA146/HLA-A*02:01-specific scFv phage clone #13 (scFv, V domains shown)
VH: QVQLVQSGAEVKKPGASVKVSCKASGYTFTSYYMHWVRQAPGQGLEWMGGFDPEDGETIYAQKFQGRVTMTEDTSTDTAYMGLSSLRSEDTAVYYCARYSYDYWGQGTLVTVSS
VL: QAVVTQEPSLTVSPGGTVTLTCASSTGAVTSGYYPNWFQQKPGQAPRALIYSTSNKHSWTPARFSGSLLGGKAALTLSGVQPEDEAEYYCLLYYGGAYVFGTGTKVTVLG
B2: PSA146/HLA-A*02:01-specific scFv phage clone #14 (scFv, V domains shown)
VH: EVQLVQSGAEVKKPGASVKVSCKASGYTFTGYFMHWVRQAPGQGLEWMGGFDPEDGETIYAQKFQGRVTMTEDTSTDTAYMELSSLRSEDTAVYYCARYSYDLWGQGTLVTVSS
VL: QTVVTQEPSLTVSPGGTVTLTCASSTGAVTSGYYPNWFQQKPGQAPRALIYSTSNKHSWTPARFSGSLLGGKAALTLSGVQPEDEAEYYCLLYYGGAQWVFGGGTKLTVLG
B3: PSA146/HLA-A*02:01-specific scFv phage clone #12 (scFv, V domains shown)
VH: QMQLVQSGSEVKKPGASVKVSCKASGYTFTSYGISWVRQAPGQGLEWMGWISAYNGNTDYVQKLQGRVTMTTDTSTNTAYMELGSLGSDDTAVYYCARTNYNKYDIWGQGTLVTVSS
VL: QSVLTQPPSVSGAPGQRVTISCTGSSSNIGAGYDVHWYQQLPGTAPKLLIYGNSNRPSGVPDRFSGSKSGTSASLAITGLQAEDEADYYCQSYDSSLSEVFGTGTKVTVLG
B4: PSA146/HLA-A*02:01-specific scFv phage clone #17 (scFv, V domains shown)
VH: QMQLVQSGAEVKKPGESLKISCKGSGYSFTSYWIGWVRQMPGKGLEWMGIIYPGDSDTRYSPSFQGQVTISADKSISTAYLQWSSLKASDTAMYYCARLVVPDAFDIWGQGTMVTVSS
VL: QSVVTQPPSVSAAPGQKVTISCSGSSSNIGNNYVSWYQQLPGTAPKLLIYDNYKRPSGIPDRFSGSKSGTSATLGITGLQTGDEADYYCGTWDSSLSAGVFGGGTKLTVLG
B5: PSA146/HLA-A*02:01-specific scFv phage clone #15 (scFv, V domains shown)
VH: QVQLVQSGAEVKKPGSSVKVSCKASGGTFSSYAISWVRQAPGQGLEWMGRIIPILGIANYAQKFQGRVTITADKSTSTAYMELSSLRSEDTAVYYCARVSQPVYGSSTYDIWGQGTLVTVSS
VL: QAVLTQPPSASGTPGQRVTISCSGRSSNLGSNSVNWYQQVPGTAPKLLIFDNHQRPSGVPDRFSGSKSGTSASLAISGLRSEDETDYYCAAWDDSLNSVVFGGGTKLTVLG

Columns and labels:
[1] = molecular target: T1, Bio-P19 member A2E-1 (chain 2: C-terminal BirA substrate peptide (BSP), enzymatically biotinylated; its letters are not printed in the patent and it is left out); experiment: phage ELISA, streptavidin plate, anti-M13-HRP
T1 construct: also called biotinylated control peptide A2E-1/HLA-A*02:01 monomer
Experimental: (§1) Individual phage clones from enriched phage display panning pools against PSA146/HLA-A*02:01 complex were incubated in the coated plates. Binding of the phage clones was detected by HRP-conjugated anti-M13 antibodies and developed using HRP substrate. The absorbance was read at 450 nm. […] Then, unique antibody clones were identified through DNA sequencing of ELISA-positive clones. […] T2 cells loaded with different peptides and β2M were first stained with purified scFv phage clones, followed by staining with a mouse anti-M13 mAb, and finally R-PE conjugated horse anti-mouse IgG from Vector Labs. Each step of the staining was performed for between 30-60 minutes on ice and the cells were washed twice between stainings. All 16 clones recognized PSA146-loaded T2 cells specifically. FIG. 3 provides examples of PSA146/HLA-A*02:01 specific phage clone binding to peptide-loaded T2 cells through FACS.

[2] = molecular target: T2, Bio-P19 member A2E-10 (chain 2: C-terminal BirA substrate peptide (BSP), enzymatically biotinylated; its letters are not printed in the patent and it is left out); experiment: phage ELISA, streptavidin plate, anti-M13-HRP
T2 construct: also called biotinylated control peptide A2E-10/HLA-A*02:01 monomer
Experimental: as §1

[3] = molecular target: T3, Bio-P19 member A2E-11 (chain 2: C-terminal BirA substrate peptide (BSP), enzymatically biotinylated; its letters are not printed in the patent and it is left out); experiment: phage ELISA, streptavidin plate, anti-M13-HRP
T3 construct: also called biotinylated control peptide A2E-11/HLA-A*02:01 monomer
Experimental: as §1

[4] = molecular target: T4, Bio-P19 member A2E-13 (chain 2: C-terminal BirA substrate peptide (BSP), enzymatically biotinylated; its letters are not printed in the patent and it is left out); experiment: phage ELISA, streptavidin plate, anti-M13-HRP
T4 construct: also called biotinylated control peptide A2E-13/HLA-A*02:01 monomer
Experimental: as §1

[5] = molecular target: T5, Bio-P19 member A2E-14 (chain 2: C-terminal BirA substrate peptide (BSP), enzymatically biotinylated; its letters are not printed in the patent and it is left out); experiment: phage ELISA, streptavidin plate, anti-M13-HRP
T5 construct: also called biotinylated control peptide A2E-14/HLA-A*02:01 monomer
Experimental: as §1

[6] = molecular target: T6, Bio-P19 member A2E-15 (chain 2: C-terminal BirA substrate peptide (BSP), enzymatically biotinylated; its letters are not printed in the patent and it is left out); experiment: phage ELISA, streptavidin plate, anti-M13-HRP
T6 construct: also called biotinylated control peptide A2E-15/HLA-A*02:01 monomer
Experimental: as §1

[7] = molecular target: T7, Bio-P19 member A2E-16 (chain 2: C-terminal BirA substrate peptide (BSP), enzymatically biotinylated; its letters are not printed in the patent and it is left out); experiment: phage ELISA, streptavidin plate, anti-M13-HRP
T7 construct: also called biotinylated control peptide A2E-16/HLA-A*02:01 monomer
Experimental: as §1

[8] = molecular target: T8, Bio-P19 member A2E-17 (chain 2: C-terminal BirA substrate peptide (BSP), enzymatically biotinylated; its letters are not printed in the patent and it is left out); experiment: phage ELISA, streptavidin plate, anti-M13-HRP
T8 construct: also called biotinylated control peptide A2E-17/HLA-A*02:01 monomer
Experimental: as §1

[9] = molecular target: T9, Bio-P19 member A2E-19 (chain 2 carries a C-terminal BirA substrate peptide (BSP), enzymatically biotinylated; the BSP letters are not given in the patent and are left out); experiment: phage ELISA, streptavidin plate, anti-M13-HRP
T9 construct: also called biotinylated control peptide A2E-19/HLA-A*02:01 monomer
Experimental: as §1

[10] = molecular target: T10, Bio-P19 member A2E-21 (chain 2 carries a C-terminal BirA substrate peptide (BSP), enzymatically biotinylated; the BSP letters are not given in the patent and are left out); experiment: phage ELISA, streptavidin plate, anti-M13-HRP
T10 construct: also called biotinylated control peptide A2E-21/HLA-A*02:01 monomer
Experimental: as §1

[11] = molecular target: T11, Bio-P19 member A2E-4 (chain 2 carries a C-terminal BirA substrate peptide (BSP), enzymatically biotinylated; the BSP letters are not given in the patent and are left out); experiment: phage ELISA, streptavidin plate, anti-M13-HRP
T11 construct: also called biotinylated control peptide A2E-4/HLA-A*02:01 monomer
Experimental: as §1

[12] = molecular target: T12, Bio-P19 member A2E-5 (chain 2 carries a C-terminal BirA substrate peptide (BSP), enzymatically biotinylated; the BSP letters are not given in the patent and are left out); experiment: phage ELISA, streptavidin plate, anti-M13-HRP
T12 construct: also called biotinylated control peptide A2E-5/HLA-A*02:01 monomer
Experimental: as §1

[13] = molecular target: T13, Bio-P19 member A2E-6 (chain 2 carries a C-terminal BirA substrate peptide (BSP), enzymatically biotinylated; the BSP letters are not given in the patent and are left out); experiment: phage ELISA, streptavidin plate, anti-M13-HRP
T13 construct: also called biotinylated control peptide A2E-6/HLA-A*02:01 monomer
Experimental: as §1

[14] = molecular target: T14, Bio-P19 member A2E-7 (chain 2 (heavy): C-terminal BirA substrate peptide, biotinylated there by BirA; tag letters not given, left out); experiment: phage ELISA, streptavidin plate, anti-M13-HRP
T14 construct: also called biotinylated control peptide A2E-7/HLA-A*02:01 monomer; not shown: BirA substrate peptide (BSP) tag at the C-terminus of the heavy chain
Experimental: as §1

[15] = molecular target: T15, Bio-P19 member A2E-8 (chain 2 (heavy): C-terminal BirA substrate peptide, biotinylated there by BirA; tag letters not given, left out); experiment: phage ELISA, streptavidin plate, anti-M13-HRP
T15 construct: also called biotinylated control peptide A2E-8/HLA-A*02:01 monomer; not shown: BirA substrate peptide (BSP) tag at the C-terminus of the heavy chain
Experimental: as §1

[16] = molecular target: T16, PSA 146-154 peptide/HLA-A*02:01 complex on the cell surface (human); experiment: flow cytometry, phage on T2 cells, anti-M13 + R-PE anti-mouse IgG
T16 construct: also called PSA146/HLA-A*02:01; PSA146-loaded T2 cells
Experimental: as §1

[17] = molecular target: T17, HLA-A*02:01 on T2 cells with no peptide loaded (human); experiment: as above
T17 construct: TAP-deficient T2 cells, no peptide loaded from outside; also called T2 cells without peptide loading
Experimental: as §1

Binder | binding result [1] | binding result [2] | binding result [3] | binding result [4] | binding result [5] | binding result [6] | binding result [7] | binding result [8] | binding result [9] | binding result [10] | binding result [11] | binding result [12] | binding result [13] | binding result [14] | binding result [15] | binding result [16] | binding result [17]
B1 | no binding | no binding | no binding | no binding | no binding | no binding | no binding | no binding | no binding | no binding | no binding | no binding | no binding | no binding | no binding | binds | no binding
B2 | no binding | no binding | no binding | no binding | no binding | no binding | no binding | no binding | no binding | no binding | no binding | no binding | no binding | no binding | no binding | binds | no binding
B3 | no binding | no binding | no binding | no binding | no binding | no binding | no binding | no binding | no binding | no binding | no binding | no binding | no binding | no binding | no binding | binds | no binding
B4 | no binding | no binding | no binding | no binding | no binding | no binding | no binding | no binding | no binding | no binding | no binding | no binding | no binding | no binding | no binding | binds | no binding
B5 | no binding | no binding | no binding | no binding | no binding | no binding | no binding | no binding | no binding | no binding | no binding | no binding | no binding | no binding | no binding | binds | no binding
